We go through four molecules from patent US6254870, “Thrombopoietin: IL-3 fusion protein” (G. D. Searle & Co., dated 2001).

A value given as a limit tells only on which side of the number the result lay.

B1: 1-153 c-mpl ligand (pMON26448) (ligand)
chain: SPAPPACDLRVLSKLLRDSHVLHSRLSQCPEVHPLPTPVLLPAVDFSLGEWKTQMEETKAQDILGAVTLLLEGVMAARGQLGPTCLSSLLGQLSGQVRLLLGALQSLLGTQLPPQGRTTAHKDPNAIFLSFQHLLRGKVRFLMLVGGSTLCVR
B2: 1-332 Δ112-115 c-mpl ligand (pMON26451-3) (ligand)
chain: SPAPPACDLRVLSKLLRDSHVLHSRLSQCPEVHPLPTPVLLPAVDFSLGEWKTQMEETKAQDILGAVTLLLEGVMAARGQLGPTCLSSLLGQLSGQVRLLLGALQSLLGTQGRTTAHKDPNAIFLSFQHLLRGKVRFLMLVGGSTLCVRRAPPTTAVPSRTSLVLTLNELPNRTSGLLETNFTASARTTGSGLLKWQQGFRAKIPGLLNQTSRSLDQIPGYLNRIHELLNGTRGLFPGPSRRTLGAPDISSGTSDTGSLPPNLQPGYSPSPTHPPTGQYTLFPLPPTLPTPVVQLHPLLPDPSAPTPTPTSPLLNTSYTHSQNLSQEG
B3: 1-332 c-mpl ligand P(46)L, W(200)R (pMON26451-4) (ligand)
chain: SPAPPACDLRVLSKLLRDSHVLHSRLSQCPEVHPLPTPVLLPAVDLSLGEWKTQMEETKAQDILGAVTLLLEGVMAARGQLGPTCLSSLLGQLSGQVRLLLGALQSLLGTQLPPQGRTTAHKDPNAIFLSFQHLLRGKVRFLMLVGGSTLCVRRAPPTTAVPSRTSLVLTLNELPNRTSGLLETNFTASARTTGSGLLKRQQGFRAKIPGLLNQTSRSLDQIPGYLNRIHELLNGTRGLFPGPSRRTLGAPDISSGTSDTGSLPPNLQPGYSPSPTHPPTPLLPDPSAPTPTPTSPLLNTSYTHSQNLSQEG
B4: 1-153 Δ112-115 c-mpl ligand (pMON26450) (ligand)
chain: SPAPPACDLRVLSKLLRDSHVLHSRLSQCPEVHPLPTPVLLPAVDFSLGEWKTQMEETKAQDILGAVTLLLEGVMAARGQLGPTCLSSLLGQLSGQVRLLLGALQSLLGTQGRTTAHKDPNAIFLSFQHLLRGKVRFLMLVGGSTLCVR

One assay concerns the target T1, human c-mpl-R (human, UniProt P40238). The assay is described as follows: cell-based or functional assay.
As for B1, the “TF1 Proliferation Assay: total counts tritiated thymidine incorporation, 10% supernatants” value (shortened to “TF1 Proliferation Assay … 10% supernatants”) is 115000 total counts.

Take B2: the “TF1 Proliferation Assay … 10% supernatants” value came out at 35600 total counts.

Consider B3, for which the “TF1 Proliferation Assay … 10% supernatants” value was 122000 total counts.

As to B4, the “TF1 Proliferation Assay … 10% supernatants” value turned out to be 60800 total counts.

The target of the next assay is T1, human c-mpl-R. In words: cell-based or functional assay. This is another data set of the same source.
On to B1, for which the “Bone Marrow Proliferation Assay: Cells/Well after 10 Day Culture of CD34+ enriched cells” value turned out to be 22500 cells/well.

As to B2, the “Bone Marrow Proliferation Assay: Cells/Well after 10 Day Culture of CD34+ enriched cells” value is less than 500 cells/well.

Regarding B3, the “Bone Marrow Proliferation Assay: Cells/Well after 10 Day Culture of CD34+ enriched cells” value was found to be 16000 cells/well.

B4: the “Bone Marrow Proliferation Assay: Cells/Well after 10 Day Culture of CD34+ enriched cells” value was less than 500 cells/well.
